Results taken from patent US20170320966A1 (INDUSTRIAL TECHNOLOGY RESEARCH INSTITUTE, published 2017).

T1: human CD34 protein (Fc tag) (human, UniProt P28906 32-290)
T1 construct: Bought reagent (Sino Biological); also called recombinant human CD34 protein; immobilized human CD34 protein; not shown: Fc tag
T1 sequence (looked up): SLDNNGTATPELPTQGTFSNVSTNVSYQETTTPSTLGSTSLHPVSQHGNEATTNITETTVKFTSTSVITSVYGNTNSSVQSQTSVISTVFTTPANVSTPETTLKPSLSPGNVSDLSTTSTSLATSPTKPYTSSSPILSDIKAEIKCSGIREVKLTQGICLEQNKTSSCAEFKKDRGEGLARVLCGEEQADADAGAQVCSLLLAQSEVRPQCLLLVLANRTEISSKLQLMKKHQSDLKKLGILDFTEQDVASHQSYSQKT


Tests used:
[1] = target: T1, human CD34 protein (Fc tag); experiment: SPR (Biacore X), CD34-Fc immobilized on chip, antibody injected, bivalent fit
Method: (§1) FIGS. 8A and 8B show the surface plasma resonance (SPR) analysis of interaction between human CD34 protein and chimeric QBEND/10 (A) or humanized QBEND/10 (B). Each antibody was injected and flowed over a surface chip with immobilized human CD34 protein at a flow rate of 30 μl/min. The resulting SPR sensorgrams were analyzed to determine the association/dissociation rate constants using the analysis program (BIAevaluation 3.2) provided by the manufacturer.
(§2) The binding kinetics of QBEND/10 antibodies to the human CD34 protein (Fc tag) (Sino Biological Incorporation, Beijing, China) were measured by performing the Biacore system (Biacore X, GE Healthcare, South Logan, Utah, USA) in the electrophoresis running buffer HBS-EP (10 mM HEPES, pH 7.4; 150 mM NaCl; 3 mM EDTA; 0.005% surfactant P20). In Brief, human CD34 protein was immobilized onto a CMS sensor chip via amine coupling to a level of 1200 response units (RU), and purified antibodies with different concentrations were injected at a flow rate of 30 μl/min. The surface was regenerated by injection of 15 μl of 10 mM glycine-HCl, pH 2.5. Then, the sensorgrams obtained at each concentration were evaluated by the program BIA Evaluation 3.2 (GE Healthcare, South Logan, Utah, USA). The binding data were fitted with a 2:1 (bivalent) binding model to calculate the affinity constant KD, which was defined as the ratio of dissociation rate (koff)/association rate (kₒₙ).

[2] = target: T1, human CD34 protein (Fc tag); experiment: SPR (Biacore X), CD34-Fc immobilized on chip
Method: as §1
as §2, with “The binding data were fitted with a 2:1 (bivalent) binding model to calculate the affinity constant KD, which was defined as the ratio of dissociation rate (koff)/association rate (kₒₙ).” left out

Binder | Kd [1] [nM] | koff [1] [s⁻¹] | kon [1] [M⁻¹ s⁻¹] | fold increase of kon against chimeric QBEND/10 [2] [fold]
chimeric QBEND/10 (antibody, V domains shown, Expressed in NS0 cells; also called chimeric QBEND/10 antibody; parental antibody) VH: QVQLEQSGPELVKPGASVKMSCKASGYTFTSYVIHWVKQKPGQGLEWLGYTNPYNDVTKYNEKFKFKATLTSDKQSTTAYMEFSSLTSEDSAVYYCARYGGLWLYAMDYWGQGTSVTVSS VL: QLVLTQSSSASFSLGASAKLTCTLSSQHRTFTIEWYQQQPLKPPKYVMELRKDGSHSTGDGIPDRFSGSSSGADRYLSISNIQPEDEAIYICGVGNTIKEQFVYVFGGGTKVTVL | 14.7 | 0.000262 | 17800 | –
humanized QBEND/10 (antibody, V domains shown, Expressed in NS0 cells; also called resurfaced QBEND/10; humanized QBEND/10 antibody) VH: QVQLVQSGAELVKPGASVKMSCKASGYTFTSYVIHWVKQKPGQGLEWLGYTNPYNDVTKYNEKFKFKATLTSDTSSTTAYMEFSSLTSEDSAVYYCARYGGLWLYAMDYWGQGTSVTVSS VL: QLVLTQSPSASFSLGASAKLTCTLSSQHRTFTIEWYQQQPEKPPKYVMELRKDGSHSKGDGIPDRFSGSSSGADRYLSISSIQPEDEAIYICGVGNTIKEQFVYVFGTGTKVTVL | 7.34 | 0.000268 | 36600 | 2
